The text below walks through data of patent publication US20060292634A1.

Changes are numbered by the printed parent chain. Where two headings read alike, the source gives them in different places.

The target of assay [1] is ELK (3% skim milk powder solution). Briefly: ELISA, ELK-coated control well, ~50 ng iMab per well, anti-VSV-HRP; urea-purified.
Assay [2] shares this target.
In assay [3] the target is chicken lysozyme (chicken), P00698. Briefly: ELISA vs. lysozyme, iMab dilution 1:10, before pH 4.8 precipitation. The following applies: remark: other sources report otherwise. Background: ELISA stands for enzyme-linked immunosorbent assay.
Chain of chicken lysozyme (chicken), P00698 (P00698 19-147 limits assumed): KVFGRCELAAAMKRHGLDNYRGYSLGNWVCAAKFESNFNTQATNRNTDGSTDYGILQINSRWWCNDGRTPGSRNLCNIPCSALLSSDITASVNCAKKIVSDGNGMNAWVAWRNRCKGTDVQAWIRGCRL
For assay [4] the target is unchanged. Briefly: ELISA, lysozyme-coated well (100 µg/ml), ~50 ng iMab per well, anti-VSV-HRP; urea-purified. The following applies: remark: other sources report otherwise.
Assay [5] shares this target. Briefly: ELISA vs. lysozyme, iMab dilution 1:10, after precipitation at pH 4.8 and redissolving. The conditions noted are these: remark: other sources report otherwise.
For assay [6] the target is unchanged. Briefly: ELISA vs. lysozyme, iMab dilution 1:10,000, after precipitation at pH 4.8 and redissolving. The conditions noted are these: remark: other sources report otherwise.
The target is the same in assay [7]. Briefly: ELISA, lysozyme-coated well (100 µg/ml), ~50 ng iMab per well, anti-VSV-HRP; heat (60 °C) purified. The following applies: remark: other sources report otherwise.
Assay [8] shares this target. Briefly: ELISA vs. lysozyme, iMab dilution 1:1000, before pH 4.8 precipitation. The conditions noted are these: remark: other sources report otherwise.
The target is the same in assay [9]. Briefly: ELISA vs. lysozyme, iMab dilution 1:10,000, before pH 4.8 precipitation. The conditions noted are these: remark: other sources report otherwise.
Assay [10] has the same target. Briefly: ELISA vs. lysozyme, iMab dilution 1:1000, after precipitation at pH 4.8 and redissolving. The following applies: remark: other sources report otherwise.
For assay [11] the target is unchanged. Briefly: ELISA vs. lysozyme, iMab dilution 1:100, before pH 4.8 precipitation. The following applies: remark: other sources report otherwise.
For assay [12] the target is unchanged. Briefly: ELISA vs. lysozyme, iMab dilution 1:100, after precipitation at pH 4.8 and redissolving. The conditions noted are these: remark: other sources report otherwise.
Assay [13] has as its target ELK (3% skim milk powder solution). Briefly: ELISA, ELK-coated control well, ~50 ng iMab per well, anti-VSV-HRP; heat (60 °C) purified.
For assay [14] the target is unchanged. Briefly: ELISA, ELK-coated control well, ~5 ng iMab per well, anti-VSV-HRP; urea-purified.
For assay [15] the target is unchanged. Briefly: ELISA, ELK-coated control well, ~20 ng iMab per well, anti-VSV-HRP; urea-purified.

B1: iMab1302 (designed binder, not shown: small tags and cut ends)
chain: VVKVVIKPSQNFIENGEDKKFTCRASGYTIGPKCIGWFSQNPEDDSTNVATINMGGGITYYGDSVKERFDIRRDNAKDTSTLSIDDAQPEDAGIYKCAADSTIYASYYECGHGLSTGGYGYDSEATVGVDIFVKLM
As to B1, the Absorbtion (450 nm) in assay [1] came out at 0.045 A450.

B2: iMab122 (designed binder, not shown: small tags and cut ends)
chain: NVKLVEKGGNFVENDDDLKLTCRASGRTFSSRTMGWFRQAPNDDSTNVATIRWNGGSTYYTNYGDSVKERFDIRVDQASNTVTLSMDDLQPEDSAEYNCAGTDIGDGWSGRYDYRGQGTDVTVSS
Take B2: the Absorbtion (450 nm) in assay [1] turned out to be 0.051 A450.

B3: iMab701 (designed binder)
chain: MASTITCEASGYTIGPACVAFDTTLGNNMGTYSAPLTSTTLGVATVTCAADSTIYASYYECGHGLSTGGYGYAAFSVPSVTVNFTA
For the molecule B3, the Absorbtion (450 nm) in [2] is 0.069 A450.

B4: iMab111 (designed binder, not shown: small tags and cut ends)
chain: NVKLVCKGGNFVENDDDLKLTCRAEGYTIGPYCMGWFRQAPNDDSTNVATINMGGGITYYGDSVKERFDIRRDNASNTVTLSMDDLQPEDSAEYNCAGDSTIYASYYECGHGLSTGGYGYDSHYRCQGTDVTVSS
B4 displayed an Absorbtion (450 nm) in assay [1] of 0.043 A450.

B5: iMab100 (designed binder, not shown: small tags and cut ends)
chain: B4 chain with C6E, C126G
On to B5, for which the Absorbtion (450 nm) was determined as 0.04 A450 in [1], 0.494 A450 in assay [4], 0.369 A450 in assay [7] and 0.041 A450 in [13]. Moreover, the Signal on Elisa in assay [3] was 0.36; in [5], 0.39; in assay [6] it was 0.059; in [8], 0.128; in assay [9], 0.059; in assay [10], 0.169. Besides, the Signal on Elisa in [11] worked out at 0.228; in assay [12] it was 0.263.

B6: iMab1202 (designed binder, not shown: small tags and cut ends)
chain: IVKLVMEKRGNFENGQDCKLTIRASGYTIGPACDGFFCQFPSDDSFSTEDNMGGGITVNDAMKPQFDIRRDNAKGTWTLSMDFQPEGIYEMQCAADSTIYASYYECGHGLSTGGYGYDNPVRLGGFDVDVPDV
Regarding B6, the Absorbtion (450 nm) in assay [1] stood at 0.041 A450.

B7: iMab1300 (designed binder, not shown: small tags and cut ends)
chain: LQVDIKPSQGEISVGESKFFLCQASGYTIGPCISWFSPNGEKLNMGSSTLTIYNANIDDAGIYKCAADSTIYASYYECGHGLSTGGYGYQSEATVNVKIFQ
B7: in [1], the Absorbtion (450 nm) was 0.041 A450.

B8: iMab1200 (designed binder)
chain: HGLPMEKRGNFIVGQNCSLTCPASGYTIGPQCVFNCYFNSALAFSTENMGEWTLDMVFSDAGIYTMCAADSTIYASYYECGHGLSTGGYGYNPVSLGSFVVDSP
B8 registered an Absorbtion (450 nm) in assay [14] of 0.04 A450.

B9: iMab1602 (designed binder, not shown: small tags and cut ends)
chain: AVKPVIGSKAPNFGENGDVKTIDRASGYTIGPTCGGVFFQGPTDDSTNVATINMGGGITYYGDSVKETFDIRRDNAKSTRTESYDDNQPEGLTEVKCAADSTIYASYYECGHGLSTGGYGYDVSSRLYGYDILVGTQ
For B9, the Absorbtion (450 nm) in [1] was determined as 0.043 A450.

B10: iMab101 (designed binder, not shown: small tags and cut ends)
chain: VKLVEKGGNFVENDDDLKLTCRASGYTIGPYCMGWFRQAPNDDSTNVATINMGTVTLSMDDLQPEDSAEYNCAADSTIYASYYECGHGLSTGGYGYDSHYRGQGTDVTVSS
As for B10, the Absorbtion (450 nm) in [15] stood at 0.043 A450.
